Data set [1] relates to S75 (S75a) (DNA, aptamer) GGGAGACAAGAATAAACGCTCAACTGGTATCTATATGAAGGTTGTAGCTTCGACAGGAGGCTCACAACAGGC
Briefly: fluorescence titration of dye into aptamer, sigmoidal fit. The note with it: binding solution (composition not given); 50 nM aptamer; ex 434 nm, em 610 nm; apparent.

In data set [2] the test system is S11 (S11a) (DNA, aptamer) GGGAGACAAGAATAAACGCTCAAGGCAACATACTGTAAAGCTCAGGACTTCGACAGGAGGCTCACAACAGGC
The data set is described as above. The note with it: binding solution (composition not given); 50 nM aptamer; ex 434 nm, em 610 nm; apparent.

Data set [3] concerns S51 (S51a) (DNA, aptamer) GGGAGACAAGAATAAACGCTCAAAGATAAAAAGGCTGTCTGAAAATTTTCGACAGGAGGCTCACAACAGGC
The data set is described as above. The following applies: binding solution (composition not given); 50 nM aptamer; ex 434 nm, em 610 nm; apparent.

The next data set deals with lipase. As to the kind of experiment: Ru(phen)2dppz fluorescence displacement. The note with it: no displacement up to 250 µM; aptamer given as variable region, S11b inferred; Ru displacement: 50 nM aptamer in binding solution (composition not given), excitation 434 nm, emission 610 nm; thermal assay: binding solution, 1 h ambient ….
Data set [4] has as its target MUC1 variable tandem repeat (VTR) peptide (UniProt P15941). As to the kind of experiment: Ru(phen)2dppz fluorescence displacement. The following applies: Ru dye; Ru displacement: 50 nM aptamer in binding solution (composition not given), excitation 434 nm, emission 610 nm; thermal assay: binding solution, 1 h ambient ….
In data set [5] the target is T1, MUC1/Y 20mer peptide (UniProt P15941-7).
T1 chain: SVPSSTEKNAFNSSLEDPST
As to the kind of experiment: Ru(phen)2dppz fluorescence displacement; 1.5 µM Ru dye; Kd only in Figure 2C; Ru displacement: 50 nM aptamer in binding solution (composition not given), excitation 434 nm, emission 610 nm; thermal assay: binding solution, 1 h ambient then SYBR Green I, 3-100 °C; cells: PBS, 4 °C, 1 h. The following applies: predicted hairpin (m-fold).

Data set [6] has as its target T1, MUC1/Y 20mer peptide. Briefly: thermal denaturation (SYBR Green I); 1:1000 aptamer:peptide; Tm 20 and 45 to 16 °C; Ru displacement: 50 nM aptamer in binding solution (composition not given), excitation 434 nm, emission 610 nm; thermal assay: binding solution, 1 h ambient then SYBR Green I, 3-100 °C; cells: PBS, 4 °C, 1 h. The following applies: hairpin (m-fold).
Data set [7] deals with T2, MUC1/Y 10mer peptide (UniProt P15941-7).
T2 chain: TEKNAFNSSL
Briefly: thermal denaturation (SYBR Green I); 1:1000 aptamer:peptide; Tm 20 and 45 to 26 °C; Ru displacement: 50 nM aptamer in binding solution (composition not given), excitation 434 nm, emission 610 nm; thermal assay: binding solution, 1 h ambient then SYBR Green I, 3-100 °C; cells: PBS, 4 °C, 1 h. The following applies: hairpin (m-fold).

For data set [8], the target named is T2, MUC1/Y 10mer peptide. As to the kind of experiment: thermal denaturation (SYBR Green I); 1:1000 aptamer:peptide; Tm 21 to 7 and 20 °C; Ru displacement: 50 nM aptamer in binding solution (composition not given), excitation 434 nm, emission 610 nm; thermal assay: binding solution, 1 h ambient then SYBR Green I, 3-100 °C; cells: PBS, 4 °C, 1 h.
Data set [9] concerns the target T1, MUC1/Y 20mer peptide. As to the kind of experiment: thermal denaturation (SYBR Green I); 1:1000 aptamer:peptide; Tm 21 to 16 °C; Ru displacement: 50 nM aptamer in binding solution (composition not given), excitation 434 nm, emission 610 nm; thermal assay: binding solution, 1 h ambient then SYBR Green I, 3-100 °C; cells: PBS, 4 °C, 1 h.
In data set [10] the target is T1, MUC1/Y 20mer peptide. Briefly: thermal denaturation (SYBR Green I); 1:1000 aptamer:peptide; Tm 35 to 30 °C; Ru displacement: 50 nM aptamer in binding solution (composition not given), excitation 434 nm, emission 610 nm; thermal assay: binding solution, 1 h ambient then SYBR Green I, 3-100 °C; cells: PBS, 4 °C, 1 h. The note with it: predicted hairpin (m-fold).
Data set [11] has as its target T2, MUC1/Y 10mer peptide. Briefly: thermal denaturation (SYBR Green I); 1:1000 aptamer:peptide; Tm 35 to 43 °C; Ru displacement: 50 nM aptamer in binding solution (composition not given), excitation 434 nm, emission 610 nm; thermal assay: binding solution, 1 h ambient then SYBR Green I, 3-100 °C; cells: PBS, 4 °C, 1 h. The note with it: predicted hairpin (m-fold).
Data set [12] deals with T1, MUC1/Y 20mer peptide. As to the kind of experiment: Ru(phen)2dppz fluorescence displacement; 2 µM Ru dye; Kd only in Figure 2C; Ru displacement: 50 nM aptamer in binding solution (composition not given), excitation 434 nm, emission 610 nm; thermal assay: binding solution, 1 h ambient then SYBR Green I, 3-100 °C; cells: PBS, 4 °C, 1 h. The following applies: predicted hairpin (m-fold).

Chain of MUC1 variable tandem repeat (VTR) peptide (P15941 whole entry): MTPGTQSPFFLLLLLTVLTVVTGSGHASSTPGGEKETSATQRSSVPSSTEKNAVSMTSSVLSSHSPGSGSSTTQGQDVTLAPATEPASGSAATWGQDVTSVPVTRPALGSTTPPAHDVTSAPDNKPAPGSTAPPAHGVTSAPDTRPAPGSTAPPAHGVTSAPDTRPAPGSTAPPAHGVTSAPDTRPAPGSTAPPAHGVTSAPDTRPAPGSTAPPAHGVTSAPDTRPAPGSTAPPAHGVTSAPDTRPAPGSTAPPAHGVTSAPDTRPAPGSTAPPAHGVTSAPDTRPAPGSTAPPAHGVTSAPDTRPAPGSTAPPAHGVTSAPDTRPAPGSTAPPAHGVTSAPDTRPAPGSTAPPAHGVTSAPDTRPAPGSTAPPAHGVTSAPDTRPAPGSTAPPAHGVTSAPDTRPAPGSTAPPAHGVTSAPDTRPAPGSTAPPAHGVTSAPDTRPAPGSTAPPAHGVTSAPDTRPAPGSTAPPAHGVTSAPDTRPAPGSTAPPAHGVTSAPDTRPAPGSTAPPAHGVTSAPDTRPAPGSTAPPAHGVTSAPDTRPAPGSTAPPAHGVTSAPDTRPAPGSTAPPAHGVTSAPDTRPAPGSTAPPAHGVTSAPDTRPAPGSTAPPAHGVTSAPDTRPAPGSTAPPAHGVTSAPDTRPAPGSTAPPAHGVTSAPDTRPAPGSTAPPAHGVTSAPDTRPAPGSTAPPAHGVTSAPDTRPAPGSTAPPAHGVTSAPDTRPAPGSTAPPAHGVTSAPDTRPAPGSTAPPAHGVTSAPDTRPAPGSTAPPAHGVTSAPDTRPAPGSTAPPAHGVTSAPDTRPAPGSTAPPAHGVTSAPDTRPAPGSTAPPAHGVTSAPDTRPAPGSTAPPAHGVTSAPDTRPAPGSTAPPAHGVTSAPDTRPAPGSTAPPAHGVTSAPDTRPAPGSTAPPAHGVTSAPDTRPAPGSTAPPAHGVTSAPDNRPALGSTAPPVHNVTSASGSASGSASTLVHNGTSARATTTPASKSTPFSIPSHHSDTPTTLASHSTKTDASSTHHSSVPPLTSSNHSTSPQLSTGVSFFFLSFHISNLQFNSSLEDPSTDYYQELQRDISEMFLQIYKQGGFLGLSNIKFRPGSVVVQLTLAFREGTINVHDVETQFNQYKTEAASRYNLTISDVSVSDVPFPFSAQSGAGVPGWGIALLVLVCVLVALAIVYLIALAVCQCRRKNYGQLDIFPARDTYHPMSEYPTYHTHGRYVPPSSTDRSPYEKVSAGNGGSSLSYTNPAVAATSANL

For the molecule `[Ru+2].c1ccc2nc3c4cccnc4c4ncccc4c3nc2c1.c1cnc2c(c1)ccc1cccnc12.c1cnc2c(c1)ccc1cccnc12`, the Kd in data set [1] is 0.24 µM; in data set [2], 0.35 µM; in data set [3] it was 0.44 µM.
Turning to “GGCAACATACTGTAAAGCTCAGGAC [S11b (S11 variable region)]”, the Kd in the data set on lipase was over 250 µM. In addition, in data set [4], the binding signal (fold more peptide than MUC1/Y peptide) was over 100.

B1: S51a (S51 full length) (ssDNA)
DNA: GGGAGACAAGAATAAACGCTCAAAGATAAAAAGGCTGTCTGAAAATTTTCGACAGGAGGCTCACAACAGGC
For B1, in the data set with MUC1/Y 20mer peptide [5], the binding result is reported as “binds”.
Take ACTGTAAAGCTCAGGACTTCGACAGG (ssDNA) [S11c (S11 hairpin region)]: the binding result with MUC1/Y 20mer peptide [6] and with MUC1/Y 10mer peptide [7] was “binds” throughout.
As to GGCAACATACTGTAAAGCTCAGGAC (ssDNA) [S11b (S11 variable region)], the binding result with MUC1/Y 10mer peptide [8] and in the data set with MUC1/Y 20mer peptide [9] was “binds” throughout.

B2: S11a (S11 full length) (ssDNA)
DNA: GGGAGACAAGAATAAACGCTCAAGGCAACATACTGTAAAGCTCAGGACTTCGACAGGAGGCTCACAACAGGC
In the case of B2, the binding result in the data set with MUC1/Y 20mer peptide [10] and in the data set with MUC1/Y 10mer peptide [11] was “binds” in each case.

B3: S75a (S75 full length) (ssDNA)
DNA: GGGAGACAAGAATAAACGCTCAACTGGTATCTATATGAAGGTTGTAGCTTCGACAGGAGGCTCACAACAGGC
Regarding B3, the binding result with MUC1/Y 20mer peptide [12] was “binds”.
